For one assay, the target named is GST-Rac1^QP (UniProt P63000). The assay can be described thus: pull-down.
The next assay deals with GST-Arf1 (Arf1^∆N17) (UniProt P84077). The assay can be described thus: pull-down.
Sequence of GST-Arf1 (Arf1^∆N17) (P84077 18-181): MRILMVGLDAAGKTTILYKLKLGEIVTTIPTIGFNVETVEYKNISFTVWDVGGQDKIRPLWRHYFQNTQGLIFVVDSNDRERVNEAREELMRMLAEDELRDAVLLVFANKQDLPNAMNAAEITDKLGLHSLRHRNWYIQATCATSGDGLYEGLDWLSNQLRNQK

As to “WRC with Sra1^Y967A (D site disrupted) (from UniProt Q7L576;Q9Y2A7;Q92558;Q9NYB9;Q8WUW1) (complex)”, the Kd with GST-Rac1^QP came to 2 µM. “∆WRC230^D-Rac1 (Rac1 tethered to the C terminus of Sra1) (from UniProt Q7L576;Q9Y2A7;Q92558;Q9NYB9;Q8WUW1) (complex)” showed a Kd in the assay with GST-Arf1 (Arf1^∆N17) of 5.33 µM.

Source of the values: publication PMC9750158.
